According to article PMC6083883 (Molecular cell, 2018):

Target: recombinant biotin-FLAG-tagged human ATM (human, UniProt Q13315 1-3056, biotin)
Experiment: pull-down

recombinant biotin-FLAG-tagged human ATM, sequence (Q13315 whole entry): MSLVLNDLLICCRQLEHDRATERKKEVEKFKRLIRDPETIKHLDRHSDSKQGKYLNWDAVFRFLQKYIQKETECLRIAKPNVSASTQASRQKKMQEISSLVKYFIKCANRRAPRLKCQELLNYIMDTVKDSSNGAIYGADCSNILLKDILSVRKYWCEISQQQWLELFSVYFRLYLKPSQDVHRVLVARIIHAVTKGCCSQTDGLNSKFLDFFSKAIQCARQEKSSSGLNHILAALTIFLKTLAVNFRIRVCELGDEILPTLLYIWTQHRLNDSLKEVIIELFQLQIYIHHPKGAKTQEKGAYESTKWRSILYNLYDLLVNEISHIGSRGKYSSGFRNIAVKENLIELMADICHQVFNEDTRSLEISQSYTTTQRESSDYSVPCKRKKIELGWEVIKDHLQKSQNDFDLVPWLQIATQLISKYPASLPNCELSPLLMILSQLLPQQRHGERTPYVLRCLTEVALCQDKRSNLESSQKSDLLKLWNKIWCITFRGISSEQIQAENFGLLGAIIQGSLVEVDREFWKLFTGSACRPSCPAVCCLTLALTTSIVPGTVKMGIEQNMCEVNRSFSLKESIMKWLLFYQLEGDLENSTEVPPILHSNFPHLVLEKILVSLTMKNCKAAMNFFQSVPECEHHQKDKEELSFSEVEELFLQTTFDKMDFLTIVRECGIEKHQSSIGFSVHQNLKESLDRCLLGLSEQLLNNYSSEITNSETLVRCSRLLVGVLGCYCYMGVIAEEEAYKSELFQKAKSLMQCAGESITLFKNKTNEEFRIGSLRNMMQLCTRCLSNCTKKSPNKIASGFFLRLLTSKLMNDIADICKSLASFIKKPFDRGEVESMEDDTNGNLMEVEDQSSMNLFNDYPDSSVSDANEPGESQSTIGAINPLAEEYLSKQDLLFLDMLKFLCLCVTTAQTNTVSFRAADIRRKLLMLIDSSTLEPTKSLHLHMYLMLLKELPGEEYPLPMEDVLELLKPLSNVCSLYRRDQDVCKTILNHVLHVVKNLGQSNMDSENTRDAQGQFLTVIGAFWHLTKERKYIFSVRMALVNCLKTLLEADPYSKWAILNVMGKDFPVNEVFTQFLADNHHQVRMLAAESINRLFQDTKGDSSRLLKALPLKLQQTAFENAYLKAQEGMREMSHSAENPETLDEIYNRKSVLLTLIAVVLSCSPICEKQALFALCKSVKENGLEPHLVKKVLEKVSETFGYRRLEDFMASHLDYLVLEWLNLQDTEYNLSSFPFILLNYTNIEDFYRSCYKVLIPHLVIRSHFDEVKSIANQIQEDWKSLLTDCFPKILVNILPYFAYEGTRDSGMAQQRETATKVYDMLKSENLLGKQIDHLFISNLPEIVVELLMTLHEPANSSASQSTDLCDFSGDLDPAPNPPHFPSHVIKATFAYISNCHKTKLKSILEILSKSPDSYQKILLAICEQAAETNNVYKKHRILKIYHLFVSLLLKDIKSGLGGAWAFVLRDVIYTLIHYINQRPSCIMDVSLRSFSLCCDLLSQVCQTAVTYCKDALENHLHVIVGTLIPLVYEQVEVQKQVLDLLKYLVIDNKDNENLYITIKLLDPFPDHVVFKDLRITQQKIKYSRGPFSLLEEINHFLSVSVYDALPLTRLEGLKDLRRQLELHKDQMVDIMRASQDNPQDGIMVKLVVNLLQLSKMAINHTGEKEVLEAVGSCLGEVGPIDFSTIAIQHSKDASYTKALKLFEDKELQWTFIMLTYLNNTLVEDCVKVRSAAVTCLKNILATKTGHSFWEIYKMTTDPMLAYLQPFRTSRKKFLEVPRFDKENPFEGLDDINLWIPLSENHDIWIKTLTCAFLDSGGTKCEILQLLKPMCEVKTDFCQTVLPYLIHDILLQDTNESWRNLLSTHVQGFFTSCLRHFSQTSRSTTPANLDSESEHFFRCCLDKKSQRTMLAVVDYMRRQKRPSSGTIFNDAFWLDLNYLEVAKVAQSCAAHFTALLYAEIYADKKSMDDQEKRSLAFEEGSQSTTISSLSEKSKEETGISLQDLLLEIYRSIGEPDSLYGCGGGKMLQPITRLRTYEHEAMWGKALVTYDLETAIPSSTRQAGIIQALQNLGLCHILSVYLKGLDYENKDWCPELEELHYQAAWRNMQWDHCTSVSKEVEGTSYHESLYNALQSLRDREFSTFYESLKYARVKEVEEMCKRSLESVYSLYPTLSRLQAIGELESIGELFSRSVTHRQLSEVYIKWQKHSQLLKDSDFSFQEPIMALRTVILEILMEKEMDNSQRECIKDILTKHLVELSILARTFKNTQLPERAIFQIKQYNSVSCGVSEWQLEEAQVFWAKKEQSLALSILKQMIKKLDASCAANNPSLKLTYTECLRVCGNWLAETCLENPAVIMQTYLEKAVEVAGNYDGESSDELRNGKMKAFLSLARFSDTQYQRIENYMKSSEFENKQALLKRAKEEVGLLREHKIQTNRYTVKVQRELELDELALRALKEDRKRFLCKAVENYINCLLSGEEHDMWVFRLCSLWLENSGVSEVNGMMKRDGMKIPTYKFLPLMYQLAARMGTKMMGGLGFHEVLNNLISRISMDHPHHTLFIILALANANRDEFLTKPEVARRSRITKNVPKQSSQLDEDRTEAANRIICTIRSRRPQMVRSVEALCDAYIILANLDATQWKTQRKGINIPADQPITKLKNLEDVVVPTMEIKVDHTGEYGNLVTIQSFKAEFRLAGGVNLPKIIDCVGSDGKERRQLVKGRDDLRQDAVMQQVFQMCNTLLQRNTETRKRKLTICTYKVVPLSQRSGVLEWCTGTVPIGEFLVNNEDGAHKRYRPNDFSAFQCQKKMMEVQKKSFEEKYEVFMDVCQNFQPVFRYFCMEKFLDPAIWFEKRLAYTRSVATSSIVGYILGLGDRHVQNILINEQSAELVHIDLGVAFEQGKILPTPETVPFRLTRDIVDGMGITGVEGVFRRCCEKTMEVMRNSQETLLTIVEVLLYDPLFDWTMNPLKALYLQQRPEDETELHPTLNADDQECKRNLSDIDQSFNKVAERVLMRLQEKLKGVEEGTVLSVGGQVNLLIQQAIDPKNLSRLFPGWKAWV

B1: MBP-tagged human MRI (natural protein, UniProt Q9BWK5 1-157, looked up)
chain: METLQSETKTRVLPSWLTAQVATKNVAPMKAPKRMRMAAVPVAAARLPATRTVYCMNEAEIVDVALGILIESRKQEKACEQPALAGADNPEHSPPCSVSPHTSSGSSSEEEDSGKQALAPGLSPSQRPGGSSSACSRSPEEEEEEDVLKYVREIFFS
B1: binds.
